Test results from patent publication US9988429B2, “Glucagon analogues” (Zealand Pharma A/S, priority 2013, dated 2018).
Starred links: 1 amine or outer side, 2 acyl side, 3 side chain; linkers in the order of their positions; H or OH if unused. Non-standard residues stand in square brackets, D forms with d. Groups on a side chain read outwards from the residue. *: point of attachment. γGlu = O=C(O)[C@H](CCC(=O)[*:2])N[*:1]; Palmitoyl = CCCCCCCCCCCCCCCC(=O)*; Ac4c = NC1(C(=O)O)CCC1; Ac3c = NC1(C(=O)O)CC1

T1: endogenous GLP-1 receptor of a murine insulinoma cell line (murine, UniProt O35659 22-463)
T1 sequence (looked up): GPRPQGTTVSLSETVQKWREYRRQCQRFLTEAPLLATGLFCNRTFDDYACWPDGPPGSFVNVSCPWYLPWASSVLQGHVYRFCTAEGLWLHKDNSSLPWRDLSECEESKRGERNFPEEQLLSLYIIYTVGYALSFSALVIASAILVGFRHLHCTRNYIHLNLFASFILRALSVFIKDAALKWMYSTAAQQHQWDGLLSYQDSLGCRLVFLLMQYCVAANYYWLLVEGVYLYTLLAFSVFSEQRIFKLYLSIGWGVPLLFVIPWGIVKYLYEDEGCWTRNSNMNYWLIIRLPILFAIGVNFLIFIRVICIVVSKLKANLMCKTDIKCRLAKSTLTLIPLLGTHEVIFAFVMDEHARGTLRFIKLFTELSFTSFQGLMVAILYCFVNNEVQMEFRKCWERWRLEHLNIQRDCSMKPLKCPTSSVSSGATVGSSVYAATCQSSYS


Experiments:
Experiment in all cases: cell-based or functional assay
[1] = biological target: human glucagon-like peptide 1 receptor (GLP-1R) (human, UniProt P43220 24-463)
[2] = biological target: human glucagon receptor (Glucagon-R) (human, UniProt P47871 26-477)
[3] = biological target: T1, endogenous GLP-1 receptor of a murine …
[4] = biological target: endogenous glucagon receptor of primary rat hepatocytes (rat, UniProt P30082 27-485)
Chain of endogenous glucagon receptor of primary rat hepatocytes (P30082 27-485): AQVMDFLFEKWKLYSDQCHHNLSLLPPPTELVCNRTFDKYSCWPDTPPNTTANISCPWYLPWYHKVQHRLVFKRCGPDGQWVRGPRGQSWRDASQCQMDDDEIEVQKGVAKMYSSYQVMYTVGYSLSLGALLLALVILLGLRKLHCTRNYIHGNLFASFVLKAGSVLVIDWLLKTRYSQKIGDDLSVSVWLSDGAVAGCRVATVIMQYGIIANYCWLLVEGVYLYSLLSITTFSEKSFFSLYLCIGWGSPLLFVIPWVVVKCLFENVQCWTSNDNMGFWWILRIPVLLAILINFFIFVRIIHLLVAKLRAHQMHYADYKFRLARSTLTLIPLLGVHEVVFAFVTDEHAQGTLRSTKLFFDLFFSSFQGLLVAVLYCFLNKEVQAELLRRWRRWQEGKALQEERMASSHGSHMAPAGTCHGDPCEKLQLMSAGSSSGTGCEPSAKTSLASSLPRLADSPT

Chain of human glucagon receptor (Glucagon-R) (P47871 26-477): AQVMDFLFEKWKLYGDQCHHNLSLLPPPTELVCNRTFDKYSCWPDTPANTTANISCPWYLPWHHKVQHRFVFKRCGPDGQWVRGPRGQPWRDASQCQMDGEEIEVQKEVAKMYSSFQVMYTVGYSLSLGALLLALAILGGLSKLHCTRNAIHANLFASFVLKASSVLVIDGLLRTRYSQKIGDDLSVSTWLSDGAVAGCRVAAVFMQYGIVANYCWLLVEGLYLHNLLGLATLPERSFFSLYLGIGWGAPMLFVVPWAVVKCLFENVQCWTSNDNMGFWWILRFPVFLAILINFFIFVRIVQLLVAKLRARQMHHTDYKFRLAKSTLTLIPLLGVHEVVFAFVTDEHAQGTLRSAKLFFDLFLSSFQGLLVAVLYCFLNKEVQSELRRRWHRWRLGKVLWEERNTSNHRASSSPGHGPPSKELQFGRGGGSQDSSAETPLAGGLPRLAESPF

| Binder | EC50 hGLP-1R CHO-K1 [nM] (cAMP, AlphaScreen) [1] | EC50 hGCGR CHO-K1 [nM] (cAMP, AlphaScreen) [2] | EC50 [nM] (cAMP in murine insulinoma cell line) [3] | EC50 [nM] (inhibition of glycogen synthesis rate in primary rat hepatocytes) [4] |
| --- | --- | --- | --- | --- |
| HXQGTFTSDYSKYLDEKAAKDFIEWLESA (position 2 is DAla (D-alanine); Lys17 side chain conjugated to hexadecanoyl-isoGlu; C-terminal amide (NH2)) [Compound 12: H-H-DAla-QGTFTSDYSKYLDE-K(Hexadecanoyl-isoGlu)-AAKDFIEWLESA-NH2] | 0.14 nM | 1.27 nM |  |  |
| H-HAQGTFTSDYSKYLDSK([γGlu-Palmitoyl])AAHDFVEWLLSA-NH2 [Compound 1: H-HAQGTFTSDYSKYLDS-K(Hexadecanoyl-isoGlu)-AAHDFVEWLLSA-NH2] | 0.52 nM |  | 0.12 nM |  |
| H-H[Ac3c]QGTFTSDYSKYLDSK([γGlu-Palmitoyl])AAHDFVEWLLSA-NH2 (SMILES CCCCCCCCCCCCCCCC(=O)N[C@@H](CCC(=O)NCCCC[C@H](NC(=O)[C@H](CO)NC(=O)[C@H](CC(=O)O)NC(=O)[C@H](CC(C)C)NC(=O)[C@H](Cc1ccc(O)cc1)NC(=O)[C@H](CCCCN)NC(=O)[C@H](CO)NC(=O)[C@H](Cc1ccc(O)cc1)NC(=O)[C@H](CC(=O)O)NC(=O)[C@H](CO)NC(=O)[C@@H](NC(=O)[C@H](Cc1ccccc1)NC(=O)[C@@H](NC(=O)CNC(=O)[C@H](CCC(N)=O)NC(=O)C1(NC(=O)[C@@H](N)Cc2c[nH]cn2)CC1)[C@@H](C)O)[C@@H](C)O)C(=O)N[C@@H](C)C(=O)N[C@@H](C)C(=O)N[C@@H](Cc1c[nH]cn1)C(=O)N[C@@H](CC(=O)O)C(=O)N[C@@H](Cc1ccccc1)C(=O)N[C@H](C(=O)N[C@@H](CCC(=O)O)C(=O)N[C@@H](Cc1c[nH]c2ccccc12)C(=O)N[C@@H](CC(C)C)C(=O)N[C@@H](CC(C)C)C(=O)N[C@@H](CO)C(=O)N[C@@H](C)C(N)=O)C(C)C)C(=O)O) [Compound 3: H-H-Ac3c-QGTFTSDYSKYLDS-K(Hexadecanoyl-isoGlu)-AAHDFVEWLLSA-NH2] |  | 0.62 nM | 0.27 nM | 3.27 nM |
| H-HAQGTFTSDYSKYLDEK([γGlu-Palmitoyl])AAKDFIEWLESA-NH2 [Compound 11: H-HAQGTFTSDYSKYLDE-K(Hexadecanoyl-isoGlu)-AAKDFIEWLESA-NH2] | 0.14 nM | 0.69 nM |  |  |
| H-H[Ac4c]HGTFTSDYSKYLDEK([γGlu-Palmitoyl])AAKDFIEWLESA-NH2 [Compound 15: H-H-Ac4c-HGTFTSDYSKYLDE-K(Hexadecanoyl-isoGlu)-AAKDFIEWLESA-NH2] |  | 0.1 nM |  | 0.05 nM |

More lines, now with the values ahead:

| EC50 hGLP-1R CHO-K1 [nM] (cAMP, AlphaScreen) [1] | EC50 hGCGR CHO-K1 [nM] (cAMP, AlphaScreen) [2] | EC50 [nM] (cAMP in murine insulinoma cell line) [3] | EC50 [nM] (inhibition of glycogen synthesis rate in primary rat hepatocytes) [4] | Binder |
| --- | --- | --- | --- | --- |
| 0.62 nM | 0.83 nM | 0.4 nM | 0.87 nM | H-HAHGTFTSDYSKYLDSK([γGlu-Palmitoyl])AAHDFVEWLLSA-NH2 (SMILES CCCCCCCCCCCCCCCC(=O)N[C@@H](CCC(=O)NCCCC[C@H](NC(=O)[C@H](CO)NC(=O)[C@H](CC(=O)O)NC(=O)[C@H](CC(C)C)NC(=O)[C@H](Cc1ccc(O)cc1)NC(=O)[C@H](CCCCN)NC(=O)[C@H](CO)NC(=O)[C@H](Cc1ccc(O)cc1)NC(=O)[C@H](CC(=O)O)NC(=O)[C@H](CO)NC(=O)[C@@H](NC(=O)[C@H](Cc1ccccc1)NC(=O)[C@@H](NC(=O)CNC(=O)[C@H](Cc1c[nH]cn1)NC(=O)[C@H](C)NC(=O)[C@@H](N)Cc1c[nH]cn1)[C@@H](C)O)[C@@H](C)O)C(=O)N[C@@H](C)C(=O)N[C@@H](C)C(=O)N[C@@H](Cc1c[nH]cn1)C(=O)N[C@@H](CC(=O)O)C(=O)N[C@@H](Cc1ccccc1)C(=O)N[C@H](C(=O)N[C@@H](CCC(=O)O)C(=O)N[C@@H](Cc1c[nH]c2ccccc12)C(=O)N[C@@H](CC(C)C)C(=O)N[C@@H](CC(C)C)C(=O)N[C@@H](CO)C(=O)N[C@@H](C)C(N)=O)C(C)C)C(=O)O) [Compound 6: H-HAHGTFTSDYSKYLDS-K(Hexadecanoyl-isoGlu)-AAHDFVEWLLSA-NH2] |
| 0.27 nM | 0.1 nM | 0.09 nM | 2.75 nM | HTQGTFTSDYSKYLDEKAAKDFIEWLESA (position 2 is Abu ((S)-2-aminobutyric acid); Lys17 side chain conjugated to hexadecanoyl-isoGlu; C-terminal amide (NH2)) [Compound 10: H-H-Abu-QGTFTSDYSKYLDE-K(Hexadecanoyl-isoGlu)-AAKDFIEWLESA-NH2] |
| 0.35 nM | 0.6 nM | 0.3 nM | 0.28 nM | H-H[dA]HGTFTSDYSKYLDSK([γGlu-Palmitoyl])AAHDFVEWLLSA-NH2 (SMILES CCCCCCCCCCCCCCCC(=O)N[C@@H](CCC(=O)NCCCC[C@H](NC(=O)[C@H](CO)NC(=O)[C@H](CC(=O)O)NC(=O)[C@H](CC(C)C)NC(=O)[C@H](Cc1ccc(O)cc1)NC(=O)[C@H](CCCCN)NC(=O)[C@H](CO)NC(=O)[C@H](Cc1ccc(O)cc1)NC(=O)[C@H](CC(=O)O)NC(=O)[C@H](CO)NC(=O)[C@@H](NC(=O)[C@H](Cc1ccccc1)NC(=O)[C@@H](NC(=O)CNC(=O)[C@H](Cc1c[nH]cn1)NC(=O)[C@@H](C)NC(=O)[C@@H](N)Cc1c[nH]cn1)[C@@H](C)O)[C@@H](C)O)C(=O)N[C@@H](C)C(=O)N[C@@H](C)C(=O)N[C@@H](Cc1c[nH]cn1)C(=O)N[C@@H](CC(=O)O)C(=O)N[C@@H](Cc1ccccc1)C(=O)N[C@H](C(=O)N[C@@H](CCC(=O)O)C(=O)N[C@@H](Cc1c[nH]c2ccccc12)C(=O)N[C@@H](CC(C)C)C(=O)N[C@@H](CC(C)C)C(=O)N[C@@H](CO)C(=O)N[C@@H](C)C(N)=O)C(C)C)C(=O)O) [Compound 7: H-H-DAla-HGTFTSDYSKYLDS-K(Hexadecanoyl-isoGlu)-AAHDFVEWLLSA-NH2] |
| 0.27 nM | 0.12 nM | 0.35 nM | 0.75 nM | H-HSHGTFTSDYSKYLDSK([γGlu-Palmitoyl])AAHDFVEWLLSA-NH2 (SMILES CCCCCCCCCCCCCCCC(=O)N[C@@H](CCC(=O)NCCCC[C@H](NC(=O)[C@H](CO)NC(=O)[C@H](CC(=O)O)NC(=O)[C@H](CC(C)C)NC(=O)[C@H](Cc1ccc(O)cc1)NC(=O)[C@H](CCCCN)NC(=O)[C@H](CO)NC(=O)[C@H](Cc1ccc(O)cc1)NC(=O)[C@H](CC(=O)O)NC(=O)[C@H](CO)NC(=O)[C@@H](NC(=O)[C@H](Cc1ccccc1)NC(=O)[C@@H](NC(=O)CNC(=O)[C@H](Cc1c[nH]cn1)NC(=O)[C@H](CO)NC(=O)[C@@H](N)Cc1c[nH]cn1)[C@@H](C)O)[C@@H](C)O)C(=O)N[C@@H](C)C(=O)N[C@@H](C)C(=O)N[C@@H](Cc1c[nH]cn1)C(=O)N[C@@H](CC(=O)O)C(=O)N[C@@H](Cc1ccccc1)C(=O)N[C@H](C(=O)N[C@@H](CCC(=O)O)C(=O)N[C@@H](Cc1c[nH]c2ccccc12)C(=O)N[C@@H](CC(C)C)C(=O)N[C@@H](CC(C)C)C(=O)N[C@@H](CO)C(=O)N[C@@H](C)C(N)=O)C(C)C)C(=O)O) [Compound 5: H-HSHGTFTSDYSKYLDS-K(Hexadecanoyl-isoGlu)-AAHDFVEWLLSA-NH2] |
| 0.24 nM | 1.82 nM | 0.24 nM | 1.18 nM | H-H[Ac3c]HGTFTSDYSKYLDSK([γGlu-Palmitoyl])AAHDFVEWLLSA-NH2 (SMILES CCCCCCCCCCCCCCCC(=O)N[C@@H](CCC(=O)NCCCC[C@H](NC(=O)[C@H](CO)NC(=O)[C@H](CC(=O)O)NC(=O)[C@H](CC(C)C)NC(=O)[C@H](Cc1ccc(O)cc1)NC(=O)[C@H](CCCCN)NC(=O)[C@H](CO)NC(=O)[C@H](Cc1ccc(O)cc1)NC(=O)[C@H](CC(=O)O)NC(=O)[C@H](CO)NC(=O)[C@@H](NC(=O)[C@H](Cc1ccccc1)NC(=O)[C@@H](NC(=O)CNC(=O)[C@H](Cc1c[nH]cn1)NC(=O)C1(NC(=O)[C@@H](N)Cc2c[nH]cn2)CC1)[C@@H](C)O)[C@@H](C)O)C(=O)N[C@@H](C)C(=O)N[C@@H](C)C(=O)N[C@@H](Cc1c[nH]cn1)C(=O)N[C@@H](CC(=O)O)C(=O)N[C@@H](Cc1ccccc1)C(=O)N[C@H](C(=O)N[C@@H](CCC(=O)O)C(=O)N[C@@H](Cc1c[nH]c2ccccc12)C(=O)N[C@@H](CC(C)C)C(=O)N[C@@H](CC(C)C)C(=O)N[C@@H](CO)C(=O)N[C@@H](C)C(N)=O)C(C)C)C(=O)O) [Compound 8: H-H-Ac3c-HGTFTSDYSKYLDS-K(Hexadecanoyl-isoGlu)-AAHDFVEWLLSA-NH2] |
| 0.33 nM | 0.2 nM | 0.21 nM | 0.07 nM | H-H[Ac4c]HGTFTSDYSKYLDSK([γGlu-Palmitoyl])AAHDFVEWLLSA-NH2 (SMILES CCCCCCCCCCCCCCCC(=O)N[C@@H](CCC(=O)NCCCC[C@H](NC(=O)[C@H](CO)NC(=O)[C@H](CC(=O)O)NC(=O)[C@H](CC(C)C)NC(=O)[C@H](Cc1ccc(O)cc1)NC(=O)[C@H](CCCCN)NC(=O)[C@H](CO)NC(=O)[C@H](Cc1ccc(O)cc1)NC(=O)[C@H](CC(=O)O)NC(=O)[C@H](CO)NC(=O)[C@@H](NC(=O)[C@H](Cc1ccccc1)NC(=O)[C@@H](NC(=O)CNC(=O)[C@H](Cc1c[nH]cn1)NC(=O)C1(NC(=O)[C@@H](N)Cc2c[nH]cn2)CCC1)[C@@H](C)O)[C@@H](C)O)C(=O)N[C@@H](C)C(=O)N[C@@H](C)C(=O)N[C@@H](Cc1c[nH]cn1)C(=O)N[C@@H](CC(=O)O)C(=O)N[C@@H](Cc1ccccc1)C(=O)N[C@H](C(=O)N[C@@H](CCC(=O)O)C(=O)N[C@@H](Cc1c[nH]c2ccccc12)C(=O)N[C@@H](CC(C)C)C(=O)N[C@@H](CC(C)C)C(=O)N[C@@H](CO)C(=O)N[C@@H](C)C(N)=O)C(C)C)C(=O)O) [Compound 9: H-H-Ac4c-HGTFTSDYSKYLDS-K(Hexadecanoyl-isoGlu)-AAHDFVEWLLSA-NH2] |
